The values that follow come from patent publication US20260234242A1 (HAINAN SIMCERE ZAIMING PHARMACEUTICAL, published 2026).

Positions count from the first letter of the chain named.

T1: human CDH6 on tumor cells (OVCAR3 cells, PA-1 cells) (human, UniProt P55285 54-790)
T1 sequence: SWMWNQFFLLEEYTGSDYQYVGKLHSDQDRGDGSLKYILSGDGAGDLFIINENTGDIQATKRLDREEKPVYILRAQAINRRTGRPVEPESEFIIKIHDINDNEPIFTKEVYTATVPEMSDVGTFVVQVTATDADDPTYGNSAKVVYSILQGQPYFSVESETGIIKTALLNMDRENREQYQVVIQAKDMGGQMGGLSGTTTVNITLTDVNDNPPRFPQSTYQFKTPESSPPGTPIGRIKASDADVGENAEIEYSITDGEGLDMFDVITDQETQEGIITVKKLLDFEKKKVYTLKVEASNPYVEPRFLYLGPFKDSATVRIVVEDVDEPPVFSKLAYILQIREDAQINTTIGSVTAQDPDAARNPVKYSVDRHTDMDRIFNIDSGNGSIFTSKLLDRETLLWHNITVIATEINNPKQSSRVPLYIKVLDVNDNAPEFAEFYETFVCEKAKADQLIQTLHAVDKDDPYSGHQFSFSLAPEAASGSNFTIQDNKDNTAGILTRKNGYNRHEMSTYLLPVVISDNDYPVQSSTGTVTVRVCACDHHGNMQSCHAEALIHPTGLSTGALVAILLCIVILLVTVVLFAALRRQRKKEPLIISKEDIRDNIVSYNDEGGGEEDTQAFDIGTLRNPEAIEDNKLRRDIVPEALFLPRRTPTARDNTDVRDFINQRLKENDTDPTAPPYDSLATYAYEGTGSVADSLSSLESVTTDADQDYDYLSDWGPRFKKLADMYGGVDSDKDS

T2: his-tagged human CDH6 extracellular region protein (hCDH6 ECD-his) (human, UniProt P55285 19-615)
T2 construct: also called Human CDH6-his; hCDH6-his; not shown: his tag
T2 sequence: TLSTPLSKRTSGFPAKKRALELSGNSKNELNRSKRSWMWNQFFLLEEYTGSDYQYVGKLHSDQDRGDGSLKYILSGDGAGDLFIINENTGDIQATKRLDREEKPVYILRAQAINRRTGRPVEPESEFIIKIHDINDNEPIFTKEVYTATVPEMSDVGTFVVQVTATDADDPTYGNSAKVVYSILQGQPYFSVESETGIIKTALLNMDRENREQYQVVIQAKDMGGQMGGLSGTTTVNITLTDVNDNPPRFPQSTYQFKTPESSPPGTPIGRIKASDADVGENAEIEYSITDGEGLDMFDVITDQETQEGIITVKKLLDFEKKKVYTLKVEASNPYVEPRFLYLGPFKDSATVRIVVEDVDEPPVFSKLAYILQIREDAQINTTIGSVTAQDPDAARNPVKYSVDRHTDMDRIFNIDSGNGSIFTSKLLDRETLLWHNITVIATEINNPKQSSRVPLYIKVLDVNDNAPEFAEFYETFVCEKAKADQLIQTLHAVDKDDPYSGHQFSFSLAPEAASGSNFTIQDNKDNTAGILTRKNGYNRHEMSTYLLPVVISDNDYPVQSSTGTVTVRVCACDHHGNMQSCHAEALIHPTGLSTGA

B1: hCDH6-1-H2L1 (antibody, V domains shown)
VH: EVQLVQSGAEVKKPGSSVKVSCKASGYTFTNYWMHWVRQAPGQGLEWMGDIDPSHSETHYTQKFKDRVTITVDKSTSTAYMELSSLRSEDTAVYYCARGDLGRFDYWGQGTTVTVSS
VL: DIVMTQSPDSLAVSLGERATINCRASESVSIHGTHLMHWYQQKPGQPPKLLIYAASNLESGVPDRFSGSGSETDFTLTISSLQAEDVAVYYCQQSFEDPWTFGGGTKVEIK
notes: Humanized
B2: hCDH6-6-H1L3 (antibody, V domains shown)
VH: EVQLVQSGAEVKKPGASVKVSCKASGYTFTDYYMAWVRQAPGQGLEWMGYIFPNSGGTDYSQKFKGRVTMTVDKSTSTVYMELSSLRSEDTAVYYCARELGADYGDYYAMDHWGQGTTVTVSS
VL: DIQMTQSPSSLSASVGDRVTITCRASENIDSYLAWYQQKPGKSPQLLVYSATLLADGVPSRFSGSGSGTDYTLTISSLQPEDFATYYCQHYYRTPPTFGQGTKLEIK
notes: Humanized
B3: hCDH6-6-H1L5 (antibody, V domains shown)
VH: B2 VH
VL: DIVMTQSPLSLPVTPGEPASISCRASENIDSYLAWYLQKPGKSPQLLVYSATLLADGVPDRFSGSGSGTDFTLKISRVEAEDVGVYYCQHYYRTPPTFGQGTKLEIK
notes: Humanized
B4: hCDH6-6-H3L5 (antibody, V domains shown)
VH: B2 VH with G42R
VL: B3 VL
notes: Humanized
B5: hCDH6-6-H2L3 (antibody, V domains shown)
VH: B2 VH with M70L
VL: B2 VL
notes: Humanized
B6: hCDH6-6-H1L4 (antibody, V domains shown)
VH: B2 VH
VL: B2 VL with Q45K, T85R
notes: Humanized; also called hCDH6-6-HIL4
B7: hCDH6-6-H2L4 (antibody, V domains shown)
VH: B2 VH with M70L
VL: B2 VL with Q45K, T85R
notes: Humanized
B8: hCDH6-6-H3L2 (antibody, V domains shown)
VH: B2 VH with G42R
VL: B2 VL with Q45K
notes: Humanized
B9: hCDH6-6-H3L1 (antibody, V domains shown)
VH: B2 VH with G42R
VL: B2 VL with Q45K, V48L
notes: Humanized
B10: hCDH6-6-H3L3 (antibody, V domains shown)
VH: B2 VH with G42R
VL: B2 VL
notes: Humanized
B11: hCDH6-6-H2L5 (antibody, V domains shown)
VH: B2 VH with M70L
VL: B3 VL
notes: Humanized
B12: hCDH6-6-H3L4 (antibody, V domains shown)
VH: B2 VH with G42R
VL: B2 VL with Q45K, T85R
notes: Humanized

One experiment deals with T1, human CDH6 on tumor cells (OVCAR3 …). Nature of the experiment: FACS, OVCAR3 cells. As for the experimental part: (§1) OVCAR3 cells with high expression of CDH6 and PA-1 cells with moderate expression of CDH6 were used to detect the binding activity of the antibodies to the cells. […] The cells were washed once with PBS, counted, resuspended to 2×10⁶ cells/mL in an FACS buffer (PBS+2% FBS), and then added to a 96-well plate at 50 μL/well. The chimeric antibodies were diluted with FACS buffer (PBS+2% FBS) and added to the 96-well plate at 50 μL/well, and the plate was incubated at 4° C. for 1 h. […] The dilution was added to the 96-well plate at 50 μL/well, and the plate was incubated at 4° C. for 1 h. After the plates were centrifuged and washed 2 times with PBS, the cells were resuspended in an FACS buffer. The mean fluorescence intensity (MFI) was measured using FACS Canton II (BD). Analysis was performed by the GraphPad Prism software, data were fitted, and EC50 values were calculated. The chimeric antibodies tested had strong binding to both OVCAR3 cells and PA-1 cells.
(§2) According to the above sequences, heavy chain (HC) and light chain (LC) plasmids were constructed (the nucleic acid sequences encoding the VH and VL of the antibodies were recombined into an expression vector carrying a signal peptide (SEQ ID NO: 132, […]) and a heavy chain constant region/light chain constant region sequence to obtain recombinant plasmids expressing VH-CH1-Fc/VL-CL). According to the expression and purification methods in Example 2, the hCDH6-1 humanized antibodies were obtained, and the binding activity of the humanized antibodies was detected by ELISA and FACS (see 2.2 and 2.3 for the method).
In general terms: In flow cytometry, cells or beads pass a laser one at a time.
What is called EC50 is the concentration giving half of the maximal effect. In the case of B1, the EC50 is 0.228 nM and the “Max MFI” value turned out to be 14500 MFI.

The target is the same in a further experiment. Nature of the experiment: FACS, OVCAR3 cells. This is another data set of the same source. As for the experimental part:
as §1
as §2, with “VH—CH1-Fc/VL-CL).” for “VH-CH1-Fc/VL-CL).”, “hCDH6-6” for “hCDH6-1”
B2: the EC50 was found to be 0.63 nM and the “Max MFI” value stood at 13800 MFI.

With B3, the EC50 came to 0.61 nM and the “Max MFI” value was found to be 14200 MFI.

B4: it took 0.69 nM to reach a half-maximal effect (EC50) and the “Max MFI” value is 14200 MFI.

Regarding B5, the EC50 was 0.57 nM and the “Max MFI” value was determined as 14100 MFI.

Take B6: a half-maximal effect (EC50) was put at 0.64 nM and the “Max MFI” value amounted to 14400 MFI.

B7: a half-maximal effect (EC50) was put at 0.62 nM and the “Max MFI” value is 14300 MFI.

Take B8: the midpoint of the response, the EC50, lay at 0.85 nM and the “Max MFI” value came to 14600 MFI.

As to B9, the EC50 was determined as 0.87 nM and the “Max MFI” value worked out at 13700 MFI.

With B10, the EC50 worked out at 0.74 nM and the “Max MFI” value was found to be 14300 MFI.

For the molecule B11, the response was half-maximal at 0.64 nM (EC50) and the “Max MFI” value amounted to 14600 MFI.

Turning to B12, the response was half-maximal at 0.7 nM (EC50) and the “Max MFI” value was found to be 14500 MFI.

Another experiment addresses T2, his-tagged human CDH6 extracellular …. Nature of the experiment: ELISA, coated antigen. As for the experimental part:
(§3) Human CDH6 protein (hCDH6 ECD-his, conventionally synthesized), monkey CDH6 protein (cynoCDH6 ECD-his, conventionally synthesized; the cynoCDH6 ECD sequence was derived from Uniprot #A0A2K5TW62 (19-615)), and murine CDH6 protein (mCDH6 ECD-his, conventionally synthesized; the mCDH6 ECD sequence was derived from Uniprot #P97326 (19-615)) were diluted with PBS to a final concentration of 1 μg/mL, and added to a 96-well ELISA plate at 100 μL/well. The plate was incubated at 4° C. overnight. The next day, the plate was washed 3 times with a plate washing solution (PBS+0.01% (v/v) Tween 20), and a blocking buffer (PBS+0.01% (v/v) Tween 20+2% (w/w) BSA) was added for blocking at room temperature for 2 h. The blocking buffer was discarded, and the plate was washed 3 times. The chimeric antibodies were diluted with 1% BSA+PBS (purchased from Cytiva, Cat. No. SH30264.01) and added to the 96-well plate at 50 μL/well. After incubation at 37° C. for 2 h, the plate was washed 3 times with a plate washing solution. […] The plate was incubated at 37° C. for 1 h and then washed 5 times with a plate washing solution. A TMB substrate (purchased from Seracare, Cat. No. 5120-0077) was added at 50 μL/well and incubated at room temperature for 10 min, then a stop solution (1.0 N HCl) was added at 50 μL/well. OD450 nm values were read using a microplate reader (Biotek). Analysis was performed by the GraphPad Prism software, data were fitted, and EC50 values were calculated. The chimeric antibodies tested all had strong binding to the human CDH6 protein, the monkey CDH6 protein, and the murine CDH6 protein.
According to the above sequences, heavy chain (HC) and light chain (LC) plasmids were constructed (the nucleic acid sequences encoding the VH and VL of the antibodies were recombined into an expression vector carrying a signal peptide (SEQ ID NO: 132, […]) and a heavy chain constant region/light chain constant region sequence to obtain recombinant plasmids expressing VH-CH1-Fc/VL-CL).
Take B1: the concentration for a half-maximal effect (EC50) amounted to 0.046 nM and the “Max OD450” value amounted to 2.65 OD450.

Another experiment has the same target. Nature of the experiment: ELISA, coated antigen. This is another data set of the same source. As to the method:
as §3
According to the above sequences, heavy chain (HC) and light chain (LC) plasmids were constructed (the nucleic acid sequences encoding the VH and VL of the antibodies were recombined into an expression vector carrying a signal peptide (SEQ ID NO: 132, […]) and a heavy chain constant region/light chain constant region sequence to obtain recombinant plasmids expressing VH—CH1-Fc/VL-CL).
Turning to B2, the EC50 came out at 0.031 nM and the “Max OD450” value worked out at 1.99 OD450.

On to B3, for which the half-maximal effective concentration (EC50) amounted to 0.031 nM and the “Max OD450” value stood at 2.06 OD450.

With B4, the EC50 was 0.043 nM and the “Max OD450” value is 1.97 OD450.

B5: the half-maximal effective concentration (EC50) was 0.025 nM and the “Max OD450” value was determined as 2.09 OD450.

With B6, the half-maximal effective concentration (EC50) came to 0.021 nM and the “Max OD450” value stood at 2.16 OD450.

B7: a half-maximal effect (EC50) was put at 0.029 nM and the “Max OD450” value is 2.14 OD450.

Consider B8, for which the concentration giving a half-maximal response (EC50) is 0.03 nM and the “Max OD450” value came out at 2.09 OD450.

Consider B9, for which the concentration for a half-maximal effect (EC50) was determined as 0.05 nM and the “Max OD450” value amounted to 2.02 OD450.

With B10, a half-maximal response (EC50) required 0.031 nM and the “Max OD450” value came out at 2 OD450.

B11: a half-maximal response (EC50) required 0.026 nM and the “Max OD450” value was determined as 2.1 OD450.

Regarding B12, the EC50 amounted to 0.041 nM and the “Max OD450” value was 2.05 OD450.
